According to patent US5780265:

What was measured:
[1] = biological target: Human Factor XIa (human) (UniProt P03951)
[2] = biological target: Human Factor XIa (human) (UniProt P03951); assay: enzyme inhibition of FXIa, chromogenic substrate, fit to the tight-binding equation (apparent Ki*)
[3] = biological target: Human Factor XIa (human) (UniProt P03951); remark: listed apart in the source
[4] = biological target: Human plasma kallikrein (human) (UniProt P03952)
[5] = biological target: tissue factor-Factor VIIa (human) (UniProt P13726)

fold prolongation of the clotting time of normal human plasma, APTT assay [1]: 2.8 fold
Ki [2]: 2.7 nM
fraction of remaining proteolytic activity at 100 nM inhibitor (fraction of uninhibited rate) [3]: 0.03
fraction of remaining proteolytic activity at 100 nM inhibitor (fraction of uninhibited rate) [4]: 0.81
fraction of remaining proteolytic activity at 100 nM inhibitor (fraction of uninhibited rate) [5]: 0.6
Substance: APPI, Kunitz protease inhibitor domain of the Alzheimer's amyloid β-protein precursor
